Substitutions are numbered along the chain they refer to. Names and notes keep the numbering of the source.
Tested on: FMC63
Test: CD19 variant binding to anti-CD19 antibody FMC63 (score)
Conditions: Table 1A, CD19 single mutants (positions of SEQ ID NO:2)

Sequence of FMC63 (as listed by the source): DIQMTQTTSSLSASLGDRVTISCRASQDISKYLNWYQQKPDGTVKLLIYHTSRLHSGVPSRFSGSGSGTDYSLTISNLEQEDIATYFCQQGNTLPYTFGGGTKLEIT
Sequence of FMC63 (as listed by the source): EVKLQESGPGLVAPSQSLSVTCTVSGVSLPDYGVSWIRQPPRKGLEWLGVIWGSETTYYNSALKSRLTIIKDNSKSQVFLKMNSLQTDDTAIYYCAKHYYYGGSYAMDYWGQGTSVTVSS

B1: W264S: CD19 variant (protein)
chain: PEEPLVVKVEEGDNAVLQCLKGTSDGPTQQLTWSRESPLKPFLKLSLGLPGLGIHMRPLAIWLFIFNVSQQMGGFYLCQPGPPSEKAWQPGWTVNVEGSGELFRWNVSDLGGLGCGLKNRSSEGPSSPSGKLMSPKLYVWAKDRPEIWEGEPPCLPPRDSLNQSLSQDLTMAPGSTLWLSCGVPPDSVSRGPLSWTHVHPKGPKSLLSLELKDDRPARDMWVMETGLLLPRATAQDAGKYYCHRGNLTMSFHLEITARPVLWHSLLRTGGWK
FMC63 Binding Score: 7.6 ± .5

B2: W264K: CD19 variant (protein)
chain: B1 chain with S264K
FMC63 Binding Score: 8. ± 1.

B3: W262Q: CD19 variant (protein)
chain: B1 chain with W262Q, S264W
FMC63 Binding Score: 6.8 ± .6

B4: W262S: CD19 variant (protein)
chain: B1 chain with W262S, S264W
FMC63 Binding Score: 7. ± .3

B5: L59S: CD19 variant (protein)
chain: B1 chain with L59S, S264W
FMC63 Binding Score: 6.4 ± .4

B6: Y240W: CD19 variant (protein)
chain: B1 chain with Y240W, S264W
FMC63 Binding Score: 6.3 ± .3

B7: F64V: CD19 variant (protein)
chain: B1 chain with F64V, S264W
FMC63 Binding Score: 6. ± .4

B8: V16W: CD19 variant (protein)
chain: B1 chain with V16W, S264W
FMC63 Binding Score: 6.7 ± 1.

B9: F66R: CD19 variant (protein)
chain: B1 chain with F66R, S264W
FMC63 Binding Score: 6. ± .3

B10: G226T: CD19 variant (protein)
chain: B1 chain with G226T, S264W
FMC63 Binding Score: 7.3 ± .6

B11: K212A: CD19 variant (protein)
chain: B1 chain with K212A, S264W
FMC63 Binding Score: 6.1 ± .6

B12: R57G: CD19 variant (protein)
chain: B1 chain with R57G, S264W
FMC63 Binding Score: 5.7 ± .2

B13: G269I: CD19 variant (protein)
chain: B1 chain with S264W, G269I
FMC63 Binding Score: 6.7 ± .8

B14: W262D: CD19 variant (protein)
chain: B1 chain with W262D, S264W
FMC63 Binding Score: 8.3 ± .8

B15: K212S: CD19 variant (protein)
chain: B1 chain with K212S, S264W
FMC63 Binding Score: 6.8 ± .6

B16: W262H: CD19 variant (protein)
chain: B1 chain with W262H, S264W
FMC63 Binding Score: 6.7 ± 1.

B17: L228V: CD19 variant (protein)
chain: B1 chain with L228V, S264W
FMC63 Binding Score: 7.4 ± .4

B18: R215W: CD19 variant (protein)
chain: B1 chain with R215W, S264W
FMC63 Binding Score: 7.1 ± 1.1

B19: W264N: CD19 variant (protein)
chain: B1 chain with S264N
FMC63 Binding Score: 9. ± 1.3

B20: W262R: CD19 variant (protein)
chain: B1 chain with W262R, S264W
FMC63 Binding Score: 7.4 ± .3

B21: W264R: CD19 variant (protein)
chain: B1 chain with S264R
FMC63 Binding Score: 6.9 ± .3

B22: W264T: CD19 variant (protein)
chain: B1 chain with S264T
FMC63 Binding Score: 7.2 ± .8

B23: W264G: CD19 variant (protein)
chain: B1 chain with S264G
FMC63 Binding Score: 7.2 ± .3

B24: W262E: CD19 variant (protein)
chain: B1 chain with W262E, S264W
FMC63 Binding Score: 6.9 ± .3

B25: W264A: CD19 variant (protein)
chain: B1 chain with S264A
FMC63 Binding Score: 6.3 ± .5

B26: W264Q: CD19 variant (protein)
chain: B1 chain with S264Q
FMC63 Binding Score: 7.4 ± .8

B27: V16F: CD19 variant (protein)
chain: B1 chain with V16F, S264W
FMC63 Binding Score: 7. ± 1.

B28: V260R: CD19 variant (protein)
chain: B1 chain with V260R, S264W
FMC63 Binding Score: 6.7 ± .3

B29: A257K: CD19 variant (protein)
chain: B1 chain with A257K, S264W
FMC63 Binding Score: 6.1 ± .5

B30: W262P: CD19 variant (protein)
chain: B1 chain with W262P, S264W
FMC63 Binding Score: 7.4 ± .7

B31: I255V: CD19 variant (protein)
chain: B1 chain with I255V, S264W
FMC63 Binding Score: 6.4 ± .4

B32: F64G: CD19 variant (protein)
chain: B1 chain with F64G, S264W
FMC63 Binding Score: 6. ± .2

B33: L59G: CD19 variant (protein)
chain: B1 chain with L59G, S264W
FMC63 Binding Score: 6.5 ± .3

B34: M223T: CD19 variant (protein)
chain: B1 chain with M223T, S264W
FMC63 Binding Score: 6.7 ± .4

B35: G226S: CD19 variant (protein)
chain: B1 chain with G226S, S264W
FMC63 Binding Score: 6.1 ± .4

B36: W264D: CD19 variant (protein)
chain: B1 chain with S264D
FMC63 Binding Score: 6.2 ± .6

B37: V260K: CD19 variant (protein)
chain: B1 chain with V260K, S264W
FMC63 Binding Score: 7.5 ± .7

B38: L59E: CD19 variant (protein)
chain: B1 chain with L59E, S264W
FMC63 Binding Score: 6.3 ± .5

B39: V260S: CD19 variant (protein)
chain: B1 chain with V260S, S264W
FMC63 Binding Score: 5.8 ± .3

B40: W262G: CD19 variant (protein)
chain: B1 chain with W262G, S264W
FMC63 Binding Score: 6.4 ± .2

B41: A257R: CD19 variant (protein)
chain: B1 chain with A257R, S264W
FMC63 Binding Score: 6.1 ± .5

B42: A232V: CD19 variant (protein)
chain: B1 chain with A232V, S264W
FMC63 Binding Score: 6.3 ± .2

B43: L20G: CD19 variant (protein)
chain: B1 chain with L20G, S264W
FMC63 Binding Score: 5.7 ± .2

B44: W62E: CD19 variant (protein)
chain: B1 chain with W62E, S264W
FMC63 Binding Score: 6.4 ± .7

B45: L261K: CD19 variant (protein)
chain: B1 chain with L261K, S264W
FMC63 Binding Score: 6.2 ± .6

B46: H243T: CD19 variant (protein)
chain: B1 chain with H243T, S264W
FMC63 Binding Score: 7.1 ± .9

B47: W264P: CD19 variant (protein)
chain: B1 chain with S264P
FMC63 Binding Score: 8.6 ± 1.5

B48: G269L: CD19 variant (protein)
chain: B1 chain with S264W, G269L
FMC63 Binding Score: 6.1 ± .4

B49: W262A: CD19 variant (protein)
chain: B1 chain with W262A, S264W
FMC63 Binding Score: 6.9 ± .5

Reference: patent publication US20220387487A1, “COMPOSITIONS AND METHODS FOR TREATMENT OF CANCER” (Aleta Biotherapeutics Inc., priority 2019, published 2022)
